# Experiment: soluble on expression in E. coli; label from the status in PepcDB or PDB records
row,Sequence,soluble on expression in E. coli
1,SLHELSLCQSAVEIIQRQAEQHDVKRVTAVWLEIGALSCVEESAVRFSFEIVCHGTVAQGCDLHIVYKPAQAWCWDCSQVVEVHQHDAQCPLCHGERLRVDTGDSLIVKSIEVE,soluble
2,MNHTSGITPLHPSIFHNILGLVALQTTRVGGVSASPLDSLNLGTHVGDDPERVRENERRLCAFLEISCESIVTTGQVHGTEIAVVTGPGKLDGYDALITTVRGLFVGILTADCYPILIYDRRTRACGAAHAGWQGTAGRIAEKTVNAMHNSFGTRPEDCLAWVGTGISGECYEIGGEVAARFSSRYLKPSPSGEGRQLLDLSAANRDQLIEAGIPPSQVQCSELCSYRDADRFFSYRRDNGKTGRMLALIGLRHSD,soluble
3,MKEFWVWVEPFDRKIVSVALEAGANAVVIPEKGRVEEVKKVGRITVIAPDGDLKLGEDVVYVLIKGKEDEERAAKYPPNVKVIVETTDWTVIPLENLIAQREELYAVVKNAQEAEVALQTLEKGVKGVVLKSRDINEIKKVGQIVSEHEEKLELVTIKITKILPLGLGDRVCVDTISLLHRGEGMLVGNSSGGMFLVHAETEENPYVAARPFRVNAGAVHMYIRVPNNRTKYLCELKAGDKVMVYDYKGRGRVTYVGRAKVERRPMLLIEGRYENKKLSCILQNAETIRLTKPDGTPISVSELKEGDEVLGYVEEAGRHFGMKVEETIIEKLEHHHHHH,soluble
4,MGHHHHHHSHMSHTQQQTASSTETSTVTVPPSREQNLVLHLSPNPAQPSTSERRHVVWATETVDNEGMGKKKSKCCCIYKKPKNWQDSSSDSDSDCETGHCRGHVEHKKNEEPKSSN,soluble
5,MTESFADLFEQSLQTLEFRPGSIVRGTVVAIENGMVLVDAGLKSESPIPAEQFKNAQGVLEIAVGDEVDVALDSVEDGFGETQLSREKAKRHEAWIVLEKAYEDAETVIGIINGKVKGGFTVELNGIRAFLPGSLVDVRPVRDTAHLEYKELEFKVIKLDQKRNNVVVSRRAVIESESSAERDALLENLQEGQAVKGIVKNLTDYGAFVDLGGVDGLLHITDMAWKRVKHPSEIVNVGDEINVKVLKYDRERTRVSLGLKQLGEDPWLEISKRYPENTKLTGRVTNLTDYGCFVEIEEGVEGLVHVSEMDWTNKNIHPSKVVNLGDEVEVLVLDIDEERRRISLGLKQCKTNPWDDFATRYNKGDKVSGKIKSITDFGIFIGLDGGIDGLVHLSDISWNGTGEDAVSEYKKGDEIHAVVLSVDPERERISLGVKQTEDDPFNAYLADKKKGTIVHGTVSAVDAKGVTVELADTVEGYIRVADISRERIEDASTVYSVGDAIEAKFMGVDRKNRSISLSIKAKDEAEEKEVMATLNKQEDAVISNAMAEAFKAARKLEHHHHHH,soluble
6,MGSDKIHHHHHHMSIESILKNRSSTRAFLDKPVTKETLDLIFAHAQLSPSNCNVQPWQTCVVSGQTKDTLKQKFMQTLMSGASPNPDFNWLPQYQGVHRDRQFGSANALYSSIGVAREDKKARQMAMVRNWQFFDAPHAVFFTMDKYLDIMGAVDLGIYAQTLSLIMADHGISNCMQGALGQFPDPVREILNLPAERGILFGMSFGYADDSAAVNNTRTDREPIENAVAFFD,not soluble
7,MNDTKITGGDLYDLWRVANINMPNVQAVYADACNVIHEINVANEDKFGRAHPGWAALGQIYEQCLFLTEGSLFSVAHYIDKAVKEFKEVDAEAARDLEAIFKNPNDHNPDDELTGDEKPKDVEVPNWWND,not soluble
8,MGSDKIHHHHHHLYSFTIASDTIELVKSLHYSILVLNMEAEEMFSKKQDPFAVKLSEIAGHLQRTSQFFVDFKINGIADVKEFAHKVKDFETAGDDLMHQLIIDLNNAFITPIDREDLLALANSLDDVLDGFEECSAIFEIYNIVQADEHMIRFVDEIHIAVNELALSMDLLVARKLQPMREHVIKVKEQETICDNLRRKSIKALFATETDPIKIIQYKEIYESLESIADYCQDAANVIETIIMKNA,not soluble
9,GKQNTSAIEALAPHSVVFTTAGGSSPEFTSSEISEQQAERWKDSTPLGVSQTRIESDQNANTTAVMGLPEGTPLPDSVGGFIEQGALLPAELADFLHVRA,not soluble
